{
  "source": "patent US20180231560A1",
  "molecular_target": "c-MET protein (Homo sapiens (Human)) (UniProt P08581)",
  "sequence (P08581 25-1390 limits assumed)": "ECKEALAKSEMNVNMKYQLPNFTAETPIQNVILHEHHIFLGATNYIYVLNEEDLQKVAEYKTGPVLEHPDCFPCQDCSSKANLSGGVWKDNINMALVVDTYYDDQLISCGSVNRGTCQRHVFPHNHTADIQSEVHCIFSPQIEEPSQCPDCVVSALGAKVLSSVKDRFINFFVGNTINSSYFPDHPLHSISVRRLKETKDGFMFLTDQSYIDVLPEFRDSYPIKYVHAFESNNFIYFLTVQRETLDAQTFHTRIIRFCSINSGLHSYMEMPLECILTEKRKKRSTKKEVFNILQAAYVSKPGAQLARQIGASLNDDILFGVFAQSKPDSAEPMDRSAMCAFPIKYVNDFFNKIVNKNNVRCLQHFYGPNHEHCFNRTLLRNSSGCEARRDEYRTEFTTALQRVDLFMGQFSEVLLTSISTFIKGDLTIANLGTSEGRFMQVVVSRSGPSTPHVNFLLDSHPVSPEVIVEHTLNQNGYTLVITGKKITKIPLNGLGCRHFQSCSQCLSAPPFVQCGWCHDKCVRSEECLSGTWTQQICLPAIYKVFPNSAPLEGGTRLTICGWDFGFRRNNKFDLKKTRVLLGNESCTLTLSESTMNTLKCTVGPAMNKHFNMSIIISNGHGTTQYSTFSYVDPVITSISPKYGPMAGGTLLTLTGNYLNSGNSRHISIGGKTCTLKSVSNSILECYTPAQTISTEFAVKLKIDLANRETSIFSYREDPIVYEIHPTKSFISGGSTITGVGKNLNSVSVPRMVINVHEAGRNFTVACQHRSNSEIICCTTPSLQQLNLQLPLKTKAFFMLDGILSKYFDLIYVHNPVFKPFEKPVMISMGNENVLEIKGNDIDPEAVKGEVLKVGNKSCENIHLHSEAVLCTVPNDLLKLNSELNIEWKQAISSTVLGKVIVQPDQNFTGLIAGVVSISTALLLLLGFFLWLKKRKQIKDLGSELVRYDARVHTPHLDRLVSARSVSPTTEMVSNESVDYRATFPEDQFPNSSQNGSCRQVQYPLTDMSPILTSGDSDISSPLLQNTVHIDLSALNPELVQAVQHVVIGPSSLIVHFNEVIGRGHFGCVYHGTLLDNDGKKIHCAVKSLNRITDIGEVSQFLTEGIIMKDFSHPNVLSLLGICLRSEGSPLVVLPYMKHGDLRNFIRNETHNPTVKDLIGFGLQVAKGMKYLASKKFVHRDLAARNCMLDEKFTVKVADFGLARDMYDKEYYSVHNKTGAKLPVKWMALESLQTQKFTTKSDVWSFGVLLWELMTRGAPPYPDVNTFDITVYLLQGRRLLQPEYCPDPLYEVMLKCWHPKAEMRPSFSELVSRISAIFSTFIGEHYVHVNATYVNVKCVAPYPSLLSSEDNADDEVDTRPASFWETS",
  "assay": "immunomagnetic capture of spiked c-MET expressing cell lines by anti-c-MET ferrofluid",
  "data": [
    {"substance": "HGF R/c-MET Antibody clone L6E7 (Cell Signaling Technologies), as anti-c-MET ferrofluid", "values": [
      {"measurement": "recovery of c-MET cells", "value": "20 to 40", "unit": "%"}
    ]}
  ]
}
